Assay results from paper PMC8341956.

Molecular target: nucleosome core particle (recombinant Xenopus laevis histone octamer on 147 bp 601 DNA) (Xenopus laevis)
Test: native gel or EMSA; as the gel shift with nucleosome cores (50 nM), at higher concentrations of HMGN1 (methods: 2-800 nM); ESI Fig. S9.3

Substance: full-length recombinant HMGN1 (HMGN1_1–99, unmodified) (natural protein)
- stoichiometry N (HMGN1 molecules per nucleosome): > 2
